# T1: IL-1 receptor on EL-4 membranes (Mus musculus, UniProt P13504)
# T1 construct: incubated at varying concentrations with EL-4 membranes; endogenous in cells; host or cells: EL-4 cell membranes
# T1 sequence (P13504 20-576): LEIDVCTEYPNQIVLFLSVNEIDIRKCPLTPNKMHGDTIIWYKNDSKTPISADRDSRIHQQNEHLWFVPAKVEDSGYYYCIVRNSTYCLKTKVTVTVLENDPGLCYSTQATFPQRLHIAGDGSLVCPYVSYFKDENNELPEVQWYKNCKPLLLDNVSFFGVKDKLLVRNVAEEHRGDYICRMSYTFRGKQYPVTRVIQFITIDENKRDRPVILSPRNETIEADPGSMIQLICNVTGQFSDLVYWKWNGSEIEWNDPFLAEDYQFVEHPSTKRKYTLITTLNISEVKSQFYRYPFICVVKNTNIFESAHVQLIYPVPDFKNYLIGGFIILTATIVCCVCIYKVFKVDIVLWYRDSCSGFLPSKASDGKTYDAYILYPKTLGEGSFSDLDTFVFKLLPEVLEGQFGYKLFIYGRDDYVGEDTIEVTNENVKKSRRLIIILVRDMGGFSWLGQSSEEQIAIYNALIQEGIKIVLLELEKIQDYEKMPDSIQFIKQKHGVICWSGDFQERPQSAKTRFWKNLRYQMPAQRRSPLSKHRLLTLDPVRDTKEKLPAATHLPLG
# B1: 26 kD rIL-1 alpha (Example 7): rIL-1 alpha pegylated with the reagent of Example 5; apparent molecular weight 26 kD (conjugate, UniProt P01583 113-271, looked up)
# Interleukin-1 alpha: SAPFSFLSNVKYNFMRIIKYEFILNDALNQSIIRANDQYLTAAALHNLDEAVKFDMGAYKSSKDDAKITVILRISKTQLYVTAQDEDQPVLLKEMPEIPKTITGSETNLLFFWETHGTKNYFTSVAHPNLFIATKQDYWVCLAGGPPSITDFQILENQA
# modifications: PEG conjugate
# notes: apparent molecular weight 26 kD
# B2: 33 kD rIL-1 alpha (Example 7): rIL-1 alpha pegylated with the reagent of Example 5; apparent molecular weight 33 kD (conjugate, UniProt P01583 113-271, looked up)
# Interleukin-1 alpha: B1 Interleukin-1 alpha
# modifications: PEG conjugate
# notes: apparent molecular weight 33 kD
# Key:
# D10 cell = D10 cell proliferation assay (specific activity of rIL-1 alpha); assay type: cell-based; conditions: for Specific Activity: label = apparent molecular weight (kD)
# Method: Pegylated rIL-1 alpha was purified from the reaction mixture after 60 minutes using hydrophobic exchange chromatography (Bio-Rad; HRLC. MP7 HlC). A linear gradient with decreasing salt concentration from 0.43 to 0.0M (NH4)2 SO4 in 50 mM sodium phosphate pH 7.0 in 20 minutes was used to separate pegylated rIL-1 alpha and unmodified rIL-1 alpha. Aliquots of fractions were evaluated by SDS-PAGE and pooled fractions were assayed for specific activity in a D10 cell proliferation assays by the method described by Kaye et al. [J. Exp. Med. 158:836, (1983)]. Protein concentrations were determined spectrophotometrically at […] using an extinction coefficient of 1.0 for rIL-1 alpha. The specific activity of the rIL-1 alpha is approximately 1.0×10^8 units/mg. The 26 kD pegylated IL-1 alpha conjugate retains bioactivity within 2-3 fold of relative to IL-1 alpha.
# [1] = biological target: T1, IL-1 receptor on EL-4 membranes; experiment: IL-1 radioreceptor competition binding assay
# Method: Pegylated IL-1ra was purified from the reaction mixture using hydrophobic exchange chromatography (Bio-Rad; HRLC MP7 HlC). A linear gradient with decreasing salt concentrations from 0.43 to 0.0M (NH4)2 SO4 in 50 mM sodium phosphate pH 7.0 in 20 minutes was used to separate pegylated IL-1ra and unmodified IL-1ra. Aliquots of fractions were evaluated by SDS-PAGE and pooled fractions were assayed in an IL-1 radioreceptor competition binding assay. [Kilian et al. J. Immunol., 136, 4509, (1986)]. Briefly, IL-1ra and PEG-IL-1ra were incubated at varying concentrations with EL-4 membranes for 30 min at 37° C. The [^125 I]IL-1 alpha was then added and the incubation continued for 30 min. The assay was terminated by vacuum filtration and the collection of cell bound [^125 I]IL-1 on filter plates. The concentration of IL-1ra or PEG-IL-1ra that inhibits binding of [^125l]IL- 1 by 50% (IC50) was determined graphically. […] The pegylated IL-1ra mixture retained its ability-to bind to the IL-1 receptor on EL-4 membranes within a factor 2 to 3 fold relative to the unmodified II1-1ra.
# [2] = test system: rIL-1alpha induction of interleukin-6; experiment: Inhibition of rIL-1alpha induction of interleukin-6 in mice (pharmacodynamics); assay type: in vivo
# Method: The pharmacodynamics of IL-1ra protein was evaluated in vivo by the ability of the IL-1ra to inhibit rIL-1alpha induction of interleukin-6. Serum from mice treated with rIL-1alpha contain high levels of IL-6, [McIntosh et al., Immunol. 143: 162, (1989)]. The administration of unmodified IL-1ra together with IL-1alpha (0 hr time point) inhibits the induction of IL-6. This test system was used to compare the pharmacodynamic properties of unmodified and PEG IL-1ra. […] Three hours later, serum samples were collected. IL-6 levels (units) were determined using a modification of an IL-6 assay that has been previously described [Van Snick et al., Proc. Natl. Acad. Sci. USA 83:9679, (1986)]. In the IL.-6 assay, B9 hybridoma cells were treated with two fold serial dilutions of the test sera in 96-well microtiter plates. Following a 3 day incubation at 37° C. in a humidified atmosphere comprised of 5% CO2 and 95% air, the wells were pulsed with 0.5 uCi of tritiated thymidine and incubated for an additional 18 hr. The cells were then harvested onto glass fiber filters and the level of tritiated thymidine incorporation was determined by scintillation counting. IL-6 activity is expressed as U/ml. IL-6 units are defined as the inverse of the serum dilution which produces half-maximal tritiated thymidine incorporation compared to a reference standard.
# CTLL cell = CTLL cell proliferation assay (specific activity of rIL-2); assay type: cell-based; conditions: Example 3, Table III: rIL-2 conjugated to PEG with reagent of Example 1; label = apparent molecular weight (kD)
# Method: Acad. Sci., USA, 84:1483, (1987)] using hydrophic exchange chromatography (Bio-Rad; Biogel-phenyl 5-PW). […] Aliquots of the fractions were evaluated by SDS-PAGE and pooled fractions were assayed to determine its specific activity in a CTLL cell proliferation assay by the method described by Gillis et al. [J. Immunology 120:2027, (1978)].
# MDBK = experiment: Anti-viral activity (specific activity) in an MDBK assay; assay type: cell-based; conditions: label = apparent molecular weight (kD)
# Method: The predominant molecular weight species from the reaction mixture were identified by SDS-PAGE with apparent molecular weights of 15 (unmodified),and 28 kD. The 28 kD pegylated protein accounted for 40% of the, total protein. The pegylated IFN-alpha was purified from the 60 minute reaction mixture and characterized using hydrophobic exchange chromatography (Bio-Rad; Biogel-phenyl-S-PW). A linear gradient with decreasing salt concentrations from 0.42M to 0.0M (NH4)2 SO4 in 50 mM sodium phosphate pH 7.0 in 20 minutes was used to separate pegylated IFN-alpha and unmodified IFN-alpha. Aliquots of the fractions were evaluated by SDS-PAGE and pooled fractions were assayed for anti-viral activity (specific activity) in an MDBK assay by the method described in by Familletti, et al. [Methods Enzym. 78,387 (1987)].
# Protein concentrations were determined spectrophotometrically at […] using an extinction coefficient of 1.0 for a 1 mg/ml IFN-alpha buffered solution.
# [3] = Example 7, Table VIII: rIL-1 alpha conjugated with reagent of Example 5
molecule,measurement,setting,value
"alpha-[2-[[(2-Pyridinyloxy)carbonyl]amino]ethyl]omega-[2-[[(2-pyridinyloxy)carbonyl]amino]-ethoxy]poly(oxy-1,2-ethanediyl) SRU 180 [Example 33]",Specific Activity,D10 cell; [3],4.5 × 10^6 units/mg
same,IC50,"[1]; Example 6A, Table VII: IL-1ra conjugated with reagent of Example 5a, label = apparent molecular weight (kD)",9.0 ng/mL
same,IC50,"[1]; Example 12A, Table XIII: IL-1ra pegylated with reagent of Example 11a, label = apparent molecular weight (kD)",6.0 ng/mL
same,IC50,"[1]; Example 19, Table XIV: IL-1ra pegylated with reagent of Example 18, label = apparent molecular weight (kD)",30.0 ng/mL
same,IC50,"[1]; Example 19A, Table XV: IL-1ra pegylated with reagent of Example 18a, label = apparent molecular weight (kD)",9.0 ng/mL
same,IC50,"[1]; Example 29, Table XX: IL-1ra pegylated with reagent of Example 28, label = molecular weight (kD)",5.0 ng/mL
"rIL-1 alpha: Recombinant Interleukin 1-alpha, unmodified; apparent molecular weight 17 kD by SDS-PAGE",Specific Activity,D10 cell; [3],4.6 × 10^7 units/mg
same,Specific Activity,"D10 cell; Example 27, Table XIX: rIL-1 alpha conjugated to PEG with reagent of Example 23",1.1 × 10^8 units/mg
same,specific activity of the rIL-1 alpha,"D10 cell; general statement, Example 7",approximately 1.0×10^8 units/mg
same,IL-6 in mice treated only with IL-1,"[2]; Example 6 experiment, 0.2 ug rIL-1 alpha, serum three hours later",28852 U/ml
same,IL-6 induced by IL-1 alone,[2]; Example 12 experiment,27283 u/ml
same,IL-6 response to IL-1 alone,"[2]; Example 19A experiment, 0.05 ug rIL-1 alpha",9203 units/ml
"alpha-[(2-Pyridinyloxy)thiocarbonyl]-omega-methoxypoly (oxy-1,2-ethanediyl) SRU 225 [Example 28]",Specific Activity,CTLL cell,2.4 × 10^7 units/mg
same,Specific Activity,"MDBK; Example 8, Table IX: IFN-alpha conjugated with reagent of Example 5",1.4 × 10^8 units/mg
same,Specific Activity,"MDBK; Example 20, Table XVI: IFN-alpha conjugated with reagent of Example 18",8.0 × 10^7 units/mg
same,IC50,"[1]; Example 12, Table XII: IL-1ra pegylated with reagent of Example 11, label = apparent molecular weight (kD)",3.0 ng/mL
B1,bioactivity relative to IL-1 alpha,D10 cell; Example 7,2-3 fold
B2,bioactivity relative to IL-1 alpha,D10 cell; Example 7,substantial loss of bioactivity
